Test results reported in patent US20240026407A1, “MODIFICATION OF SAPONINS” (GLAXOSMITHKLINE BIOLOGICALS SA, priority 2020, published 2024).

Assays:
Assay type in all cases: biochemical, Quillaja saponaria
[1] = Experiment 6-1: screening of rhamnosidases for derhamnosylation of saponins in treated bark extract (2%), QS-17 2296 to QS-18 2150 (PAR %); conditions: TBE 2%, pH 7.5, 30 degC, 18 h; TIC peak area ratio percent of rhamnosylated starting saponin to derhamnosylated product, LCMS/MS; negative controls 4.876, 5.225
[2] = Experiment 6-1: screening of rhamnosidases for derhamnosylation of saponins in treated bark extract (2%), desglucosyl-QS-17 2134 to QS-21 1988 (PAR %); conditions: TBE 2%, pH 7.5, 30 degC, 18 h; TIC peak area ratio percent, LCMS/MS; negative controls 2.719, 2.158
[3] = Experiment 6-1: specificity of rhamnosidases towards other rhamnose residues (C3 saccharide rhamnose, C28 saccharide rhamnose); conditions: TBE 2%, pH 7.5, 30 degC, 18 h; LCMS/MS; negative controls 0.18, 0.17
[4] = Experiment 6-1: screening of rhamnosidases for derhamnosylation of saponins in treated bark extract (2%), QS-17 2310 to QS-18 2164 (PAR %); conditions: TBE 2%, pH 7.5, 30 degC, 18 h; TIC peak area ratio percent, LCMS/MS; negative controls 3.061, 2.429

Molecule	QS-17 (PAR %) [1] [%]	Peak75 (PAR %) [2] [%]	ratio PP/QS-21 [3]	Peak57 (PAR %) [4] [%]
1031 (protein, listed as Pedobacter heparinus) MTNFSCIAKRITSFLMLFLSCSPFITAQVKSGTIVYPRGSFDADWISCPDVNLKSYGVFHMRKVFELTSRPKQFVVHVSGDQRYRLFANGTPVCFGPARGDLRNWNYETIDIAPYLKTGKNVLAVQLWNMGSGAPAAQLTYQTGFILQGNSNAEQMVNTNNSWRIIQNKGYFPEPFPPSRLASYIVGSCDSVVFKNYPFGWQNINYDDKSWLSPVSETKPRYYTEKRSLIPRSIPMMEEKIEPITGIVRILGTDTSAILNSFNKNGSITIPANTKATILFDRKTLTTAYPEITFSKGSNGKVKITYAESLFNSENLKGNRNEIKNKTIKGYYDVFLPDGGTAHTFRPLWTRTFRYIQFDITTGSEPMVIDKMQSVFTAYPFKEHAFFTSNDSTLHEIWDVSWRTARLCANETYMDCPYYEQLQYVGDTRIQALISLYVSGDDRLMRNAIEQFHQSQIPDGLTMDAYPAGGGKFIPPFSLFWIAMLHDFYWYRDDEKFIEKYLIPMEAILKWFEYRLDNNSGMLGKTGYWNFVDWSFSPKGIPSGGLEGNSSILSLQYVYALEQAAEIFAHAKQQQKADYYHNLGQKIKRAVYARCYDINNRLLADSPERKAFSQHANIWSIITDCIPFKDQEATMERIMNDSTLTATSLYYRFYYTKAMKKAGLGSLYLSSLRPWKQMLDLGFSTFPETLAPNVRSDCHAWSASPCYDFLATVCGIEPGTPGFATVRISPNLGNLKAVSGELPHPLGPIKVSYKKIKEGSYSAHIELPANLNGIFISKDQKVILTGGKQEITFKYE	5.218	2.367	0.17	3.096
1078 (protein, listed as Flavobacterium johnsoniae) MFQKKHLFFILLLASIVSAQEVHKKETNFQPTLESSKPWVYWYWMKSAYSKPGITADLEAMKQAGIAGAYLMTIKGPANPPLIDPPVLQLTPEFWDMIHWAFKEADRLGLKLAFHGADGFAVAGGPWITPEMSMQKIVWSTTEILGGKKVTSKLPVPAHYKDYYKNIATFAIPIKEYEITSQMQLPKVTTSNNTDASFLADPKKDENFKFADAGWIQYEFAQPFTCKSIVIETKGRDFQAQRLIVEVSDDGVNFRFHERMIAPRHGWQDMDFPNTHTITPVTAKYFRFVCDPKGTEPGAEDLDFAKWKQNLKVSKITLSNQSLINNYEGKSGAIWRLTPQTTEKEIPNSDAFKKSEIINISNFVDADGNLNWKAPKGKWKILRMGHTSTGHENATGGAGKGLEVDKFNPELIRFQLDHWFGEAVRSAGPELTSKVLEILHFDSWECGSQNWSSVFQTEFKKRRGYDLVEYLPVMAGIPVESADFSEKVLYDIRKTIADLVADNFYGTIAQIAKEYNVKLSAENVAPVVTSDALLHYKYVDYPSGEFWLKSPTHDKPFDMVDAISGGHIYGKDIIQAESFTALRMDWDEHPGNLKTTADRNYALGINRLFYHVFVHNPWTDRKPGMTLDDIGTFFQRDQTWWKPGKAWFDYCQRVQFQLQKGKPIIDLAVFSGEDFPSRSFVPDRLVPFIPNVFGKERLESEKIRLENEGQPTAKMPKEVTYSKNITDLSQWINPLNGYQYDSFNADVLINRAKVINGKISFEGGIEYGALFFPGSHKMAPNKMLSLASAEKILQLLKDGATIFVDEKPNLQPGVQSEADQKKWQNVIDEIWNNTNSATWKIGKGTVIKLPYLGNDFASIGISQDVYFTNLNRVDSETLAWAHRKSDTEDIYFISNQKAEKRTFDASFRILGKVPQWYNPVTDKTSALDNWKIENGRTIVSITLDANESGFVMFKEETKEILAKGRSSEFEKVQTLDENWKLQFDTEFKGPKEVVKINKLFDWSTSENDQIKYYSGTVVYKKEFIWKGKDSSKTWLDLGEISNIAEIKINGKDCGALWTFPFKTDISKALQKGKNTIEIKVTNTWANRLIGDQKLPKEERLTWTTAPFRLEGEPLLKAGLLGPVIIVKEK	5.218	2.153	0.16	2.788
995 (protein, Bacteroides thetaiotaomicron) MILLGALSLASSTFAQTWIWYPGDYEIWLGNQMNNRRTERGAFFPPFWKTDSHYVVVEFSKVLNLSEPEEVFIAAEGTYNVKLDGKLQFGMPETLLLPAGKHSLNIKVWNQATPPTIYVKGKTVNSDSSWRVTYEDKEWIDESGKASDTSATIYMDAGCWNFDGATQRPSQFSLMREPQQPVAKTEQPEGGILYDFGKETFGFITLKNLSGKGKIDLYYGESPEEAKDKAYCETLDKLLLEPGQITDLAIRSTSPLHHSDNEYTLENSKAFRYVYITHEPEVQIGEVSMQYEYLPEEYRGNFRCNDEELNCIWEVGAYTMHLTTREFFIDGIKRDRWVWSGDAIQSYLMNYYLFFDSESVKRTIWLLRGKDPVTSHSNTIMDYTFYWFLSVYDYYMYSGDRHFVNQLYPRMQTMMDYVLGRTNKNGMVEGMSGDWVFVDWADGYLDKKGELSFEQVLFCRSLETMALCADLVGDKDGQQKYEKLASALKAKLEPTFWNNQKQAFVHNCVDGRQSDAVTRYANMFSVFFDYLNADKQQAIKQSVLLNDEILKITTPYMRFYELEALCALGEQETVMKEMKAYWGGMLKAGATSFWEKYNPEESGTQHLAMYGRPYGKSLCHAWGASPIYLLGKYYLGVKPTKEGYKEFAVSPVLGGLKWMEGTVPTPNGDIHVYMDNKTIKVKATEGKGYLTIQSRRQPKANMGTVEKVSEGVWRLWIDSPEERIVTYRL	5.223	2.545	0.17	3.002
1040 (protein, listed as Rhodopirellula baltica) MNEDGWQDRRQLPRFSWIRLAKGRSAELSSIPVRPLKMLLSILFLTVITVAASSSVSALEPQRLRCEYLENPTGIDAARTRLSWQVTSDQRGQSQIAYRLLVASSEEQLGSGVGDLWDSGKVKSDQTLFVEYAGKPLSSRQECFWKVQVWDGAGNATESEVASWSMGLLDQSDWSAEYISYRDDSPIHTDLSTLHLPAARQYRKEFSASKSIKRATVYATALGIYELHLNGQRVGDASFAPGWTDYRKRAYYNTYDVTNLVREGDNAIGAWVADGWYSGYVGFGLLTGMGPEKNGRSTYGKTPSFMSQLEIEFEDGTKQTIGTDTTWKVTGEGPIQEADLLMGESYDARREMVGWSEPGFDHDHWDDAILAKQNGQVTAAFYEFRNPTTTGAGVKKVGEQRDFGFKRPELEAFPGVPVRVTQEIPAKTVSKLEPGTFVFDLGQNFAGTIRLKIKGREGERIQLRYGEMLHPDGRLMTENLRKARATDYYTCKGNPDGEFYQPRFTFHGFQFVEVKRLSDSSEDAGKATDSQNVQTPPLDMVTGLVLHSDTPMASTFECSDPMVNQLFKNVLWTQRANFLDLPTDCPQRDERMGWTGDAQAYVATAAYNADIGAFYTKWLRELMESQRPSGAFPGYAPYPFQHGWDFGTAWADAGVICPWTIWQFYGDTRVIDDCWEPMTRFMRWRKQTSVNDLGVSHGNAWGDWLSQGEETPLDYIDTVYFAISARMMAEMAEATGRDEEAKLYREQRAATQAAFQAKYLNEDGSITVRTQTAQALALFADLVPAEQREATGKYLAKRLSENGNHMATGFLGTRPLLPVLSGSGQHDLATFLLQSREFPSWGYEISNGATTIWERWDSYTKEDAFGRHNAAMNSFSHYAFGAVCEWMFATLAGIQSDGPGFKRIVIRPTPPSPGSNAMHEPINWVKASYESIRGTIRSEWKMVDGRFHLNVTIPANTTATVYLPTNDANSITESGNALADTANVSLLRKETNVVALTVHSGSYEFLASSGIVPAKVSLKSSEPKDNSINPGEIDLTDATKLESWDFRNPQDLAKWGERKSVDIEQRNGSAYLVATGDDSQMAVRMTKPLEGKLVIELRASPSQNSTSQFYWAIPGRGFNGQQQTKRLLRQSDAVNAYLFAIPDALTVGKLRFDPFATYDEYANAGEMMIESISIYRLVD	5.244	2.372	0.18	3.084
